Results reported in publication PMC6377682 (2019).

B1: human ASPP2^920-1120 [human] / PP1α^301-330 C-tail peptide [human] (parent complex)
chain 1: MRVKFNPLALLLDSSLEGEFDLVQRIIYEVDDPSLPNDEGITALHNAVCAGHTEIVKFLVQFGVNVNAADSDGWTPLHCAASCNNVQVCKFLVESGAAVFAMTYSDMQTAADKCEEMEEGYTQCSQFLYGVQEKMGIMNKGVIYALWDYEPQNDDELPMKEGDCMTIIHREDEDEIEWWWARLNDKEGYVPRNLLGLYPRI
chain 2: KNKGKYGQFSGLNPGGRPITPPRNSAKAKK
B2: PP1α^301-330 C-tail peptide [human] / human ASPP2^920-1120 [human] (parent complex)
chain 1: B1 chain 2
chain 2: B1 chain 1
B3: human ASPP1^882-1090 [human] / human PP1β^6-327 [human] (parent complex)
chain 1: LRVRFNPLALLLDASLEGEFDLVQRIIYEVEDPSKPNDEGITPLHNAVCAGHHHIVKFLLDFGVNVNAADSDGWTPLHCAASCNSVHLCKQLVESGAAIFASTISDIETAADKCEEMEEGYIQCSQFLYGVQEKLGVMNKGVAYALWDYEAQNSDELSFHEGDALTILRRKDESETEWWWARLGDREGYVPKNLLGLYPRIKPRQRTLA
chain 2: LNVDSLITRLLEVRGCRPGKIVQMTEAEVRGLCIKSREIFLSQPILLELEAPLKICGDIHGQYTDLLRLFEYGGFPPEANYLFLGDYVDRGKQSLETICLLLAYKIKYPENFFLLRGNHECASINRIYGFYDECKRRFNIKLWKTFTDCFNCLPIAAIVDEKIFCCHGGLSPDLQSMEQIRRIMRPTDVPDTGLLCDLLWSDPDKDVQGWGENDRGVSFTFGADVVSKFLNRHDLDLICRAHQVVEDGYEFFAKRQLVTLFSAPNYCGEFDNAGGMMSVDETLMCSFQILKPSEKKAKYQYGGLNSGRPVTPPRTANPPKKR
B4: human ASPP2^920-1120 [human] / human PP1β^6-327 [human] (parent complex)
chain 1: B1 chain 1
chain 2: B3 chain 2

Variants of: B1
Experiment: ITC

Kd | Variant
172 nM | chain 1 MRVKFNPLALLLDSSLEGEFDLVQRIIYEVDDPSLPNDEGITALHNAVCAGHTEIVKFLVQFGVNVNAADSDGWTPLHCAASCNNVQVCKFLVESGAAVFAMTYSDMQTAADKCEEMEEGYTQCSQFLYGVQEKMGIMNKGVIYALWDYEPQNDDELPMKEGDCMTIIHREGPDEIEWWWARLNDKEGYVPRNLLGLYPRI [chain 1 D172G, chain 1 E173P]

Variants of: B2
Experiment: ITC

Kd | Variant
520 nM | chain 1 KNKGKYGQFSGLNPGGRPITPPRNSAAAKK [chain 1 K27A]
342 nM | chain 1 KNKGKYGQFSGLNPGGRPITPPRNSAKAAK [chain 1 K29A]
326 nM | chain 1 KNKGKYGQFSGLNPGGRPITPPRNSAKAKA [chain 1 K30A]

Variants of: B3
Experiment: BLI

Kd | Variant
84.4 nM | chain 1 LRVRFNPLALLLDASLEGEFDLVQRIIYEVEDPSKPNDEGITPLHNAVCAGHHHIVKFLLDFGVNVNAADSDGWTPLHCAASCNSVHLCKQLVESGAAIFASTISDIETAADKCEEMEEGYIQCSQFLYGVQEKLGVMNKGVAYALWDYEAQNSDELSFHEGDALTILRREDEDETEWWWARLGDREGYVPKNLLGLYPRIKPRQRTLA [chain 1 K171E, chain 1 S174D]

Variants of: B4
Experiment: BLI

Kd | Variant
178 nM | chain 1 MRVKFNPLALLLDSSLEGEFDLVQRIIYEVDDPSLPNDEGITALHNAVCAGHTEIVKFLVQFGVNVNAADSDGWTPLHCAASCNNVQVCKFLVESGAAVFAMTYSDMQTAADKCEEMEEGYTQCSQFLYGVQEKMGIMNKGVIYALWDYEPQNDDELPMKEGDCMTIIHRKDESEIEWWWARLNDKEGYVPRNLLGLYPRI [chain 1 E171K, chain 1 D174S]
136 nM | chain 1 MRVKFNPLALLLDSSLEGEFDLVQRIIYEVDDPSLPNDEGITALHNAVCAGHTEIVKFLVQFGVNVNAADSDGWTPLHCAASCNNVQVCKFLVESGAAVFAMTYSDMQTAADKCEEMEEGYTQCSQFLYGVQEKMGIMNKGVIYALWDYEPQNDDELPMKEGDCMTIIHREDESEIEWWWARLNDKEGYVPRNLLGLYPRI [chain 1 D174S]
